Test results as given in ChEMBL document CHEMBL1122571, “Design and synthesis of tetrahedral intermediate analogues as potential dihydroorotase inhibitors” (J Med Chem, 1984).

Tested on: O=C1CC(C(=O)O)NC(=O)N1
Assay: Compound was evaluated for the inhibition of dihydroorotase enzyme from mouse Ehrlich ascites at the concentration of 10 uM and at pH 7.37

Work on “Multifunctional protein CAD (Mus musculus), B2RQC6” yielded a Km of 4 µM.
